Reference: patent publication US7662770

Target: EphA2 receptor tyrosine kinase, endogenous in MCF-10A and MDA-MB-231 human mammary epithelial cells (UniProt P29317)
UniProt P29317, sequence (P29317 whole entry, looked up): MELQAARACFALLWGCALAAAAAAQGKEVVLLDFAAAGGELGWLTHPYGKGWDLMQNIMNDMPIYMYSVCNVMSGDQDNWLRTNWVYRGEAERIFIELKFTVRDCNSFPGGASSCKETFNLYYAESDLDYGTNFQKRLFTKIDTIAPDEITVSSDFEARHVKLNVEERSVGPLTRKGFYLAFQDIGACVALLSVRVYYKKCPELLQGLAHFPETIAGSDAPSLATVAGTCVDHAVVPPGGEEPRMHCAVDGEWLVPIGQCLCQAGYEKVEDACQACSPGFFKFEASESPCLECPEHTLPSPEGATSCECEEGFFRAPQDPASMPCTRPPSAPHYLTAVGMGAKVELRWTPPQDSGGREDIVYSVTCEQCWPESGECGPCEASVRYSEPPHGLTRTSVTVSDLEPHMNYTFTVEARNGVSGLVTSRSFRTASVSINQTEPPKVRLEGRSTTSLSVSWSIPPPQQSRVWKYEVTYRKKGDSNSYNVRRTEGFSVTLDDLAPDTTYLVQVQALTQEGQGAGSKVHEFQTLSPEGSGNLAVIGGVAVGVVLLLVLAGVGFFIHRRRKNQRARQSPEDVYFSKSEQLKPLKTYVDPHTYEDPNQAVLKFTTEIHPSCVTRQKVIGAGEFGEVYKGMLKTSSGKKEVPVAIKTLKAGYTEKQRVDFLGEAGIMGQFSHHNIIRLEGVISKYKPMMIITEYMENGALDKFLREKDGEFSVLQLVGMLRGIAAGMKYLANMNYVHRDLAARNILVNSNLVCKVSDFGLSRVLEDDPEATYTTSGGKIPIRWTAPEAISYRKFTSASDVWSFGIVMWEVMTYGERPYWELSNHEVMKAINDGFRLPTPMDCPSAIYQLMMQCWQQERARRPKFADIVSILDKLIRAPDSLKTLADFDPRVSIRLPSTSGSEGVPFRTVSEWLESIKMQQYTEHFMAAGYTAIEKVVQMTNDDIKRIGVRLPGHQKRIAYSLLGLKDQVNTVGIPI

With “purified LMW-PTP protein (used in the in vitro dephosphorylation assays)” the “dephosphorylation of immunoprecipitated EphA2 (Western blot with PY20 and 4G10)” value was “purified LMW-PTP could dephosphorylate EphA2 in a dose and time-dependent manner”.
